The values that follow come from the RNAGym collection of RNA variant scans (doi:10.1073/pnas.2313332121).

To fix the notation:
B1: TPR 5TU (parent)
chain: GGAUCUUCUCGAUCUAACAAAAAAGACAAAUCUGCCACAAAGCUUGAGAGCAUCUUCGGAUGCAGAGGCGGCAGCCUUCGGUGGCGCGAUAGCGCCAACGUUCUCAACUAUGACACGCAAAACGCGUGCUCCGUUGAAUGGAGUUUAUCAUG

Fewer inactive variants are shown than the library holds.

This data set covers variants of B1. As to the kind of experiment: polymerase ribozyme fitness, log enrichment relative to wild type (log ratio); higher = more active; in vitro selection for triplet polymerase activity. The gist of the method:
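Frozen incubation at −7 °C formed the core of a single, triplicate in vitro selection round applied to PCR-built, transcribed mutant libraries of each subunit of a heterodimeric triplet polymerase ribozyme. Extended constructs were gel-excised, captured with streptavidin beads and amplified by RT-PCR, and input and output libraries were Illumina-sequenced with a filter of ≥10 input reads and ≥1 read per output. Fitness is the logarithm of genotype enrichment relative to wild-type enrichment, with inverse-variance-weighted replicate averaging, and the logarithm is base 2.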
As for GGAUCUUCUCGAUCUAACAAAAAAGACAAAACUGCCACAAAGCUUCAGAGCAUCUUCGGAUGCAGAGGCGGCAGCCUUCGGUGGCGCGAUAGCGUCAACGUUCUCAACUAUGACACGCAAAACGCGUGCUCCGUUGAAUGGAGUUUAUCAUG [U31A G46C C95U], the “polymerase ribozyme fitness (log ratio)” value was -1.57.
The same measure for GGAUCUUCUCGAUUUAACAAAAAAGACAUAUCUGCCACAAAGCUUGAGAGCAUGUUCGGAUGCAGAGGCGGCAGCCUUCGGUUUCGCGAUAGCGCCAACGUUCUGAACUAUGACACGCAAAACGCGUGCUCCGUUGAAUGGAGUUUAUCAGG [C14U A29U C54G G83U G84U C105G U151G]: not above -4.2; for GGAUCUUCUCGAUCUAACAAAAAAGACAAAUCUGCCACAAAGCUUGAGAGCAUCAUCGGAUGCCGAGGCGGCAGCCUUCGGUGGUGCGAUAGCGCCAACGUUCUCAACUAUGACACGCAAAACGCGUGCUCCGUUGAAUGGAGUUGAUCAUG [U55A A64C C85U U146G]: not above -4.2; for GGAUCUUCUCGAUCUAACAAAAAAGACAAAUCUGCCAGAAAGCUUGAGAGCAUCUUCGGAUGCAGAGGCGGCAGCCUUCGGUGGCGCGAUAACGCCAACGUUCUGAACUAUGACACGCAAAACGCGUGCUCCGUUGAAUGGAGUUUAUCAUG [C38G G92A C105G]: not above -4.2.
Take GGAUGUUCUCGAUCUAACAAAAAAGACAAAUCUGCCACAAAGCUUGAGAGCAGAUUCGGAUGCAGAGGCGGCAGCCUUCGGUGGCGCGAUAGCGCUAACGUUCUCAACUAUGACACGCAAAACGCGUGCUCCGUAGAAUGGAGUUUAUCAUG [C5G U53G C54A C96U U135A]: the “polymerase ribozyme fitness (log ratio)” value was -3.79.
To GGAUCUUCUCGAUCUAACAAAAAAGACAAAUCUGCCACACAGCUUGAGAGCAUCUUCGGAUGCAGAGGCGGCAGCCUUCGGUGGCGCGAUAGCGCCAACGUUCUCAACUAUGACACGCAAAACGCGUGCUCCGUUGAAUGGAAUUUAUCAUG [A40C G143A] belongs -0.684; to GGAUCUUCUCGAUCUAACAUAAAAGACAAAUCUGCCACAAAGCUUGAGAGCAUCUUCGGAUGCAGAGGCGGCAGCCUUCGGUGGCGCGAUAGCGCUAGCGUUCUCAACUAUGACACGCAAAACGCGUGCUCCGUUGAAUGGAGUUUAUCAUG [A20U C96U A98G], -1.71.
With GGAUCUUCUCGAUCUAACAAAAAAGACAAAUCUGCCACAAAGCUUGAGAGCAUCUUCGGAUGCAGAGGCGGCAGCCUUCGGUAGCGCGAUAGCGCCAACGUUCUCAACUAUGACACGCAAAACGCGUGCUCCGUUGAAUGGGGUUUAACAUG [G83A A142G U148A], the “polymerase ribozyme fitness (log ratio)” value was -4.11.
To GGAUCUUAUUGAUCUAACAAAAAAGACAAAUCUGCCACAAAGCUUGAGAGCAUCUUCGGAUGCAGAGGCGGCAGACUUCGGUGGCACGAUAGCGCCAUCGUUCUCAACUAUGACACGCAAAACGCGUGCUCCGUUGACUGGAGUUUAUCAUG [C8A C10U C75A G86A A98U A138C] belongs not above -4.2; to GGAUCUUCUCGAUCUAACAAAAAAGACUAAUCUGCCACAACGCUUGAGAGCAUCUUCGGAUGCAGAGGCGGCAGCCUUCGGUGGCGCGAUAGCGCAAACGUUCUCAACUAUGACACGCAAAACGCGUGCUCCGUUGAAUGCAGUUUAUCAUG [A28U A41C C96A G141C], -4.02; to GGAUCUUCUGGAUCUAACAAAAAAGACAAAUCUGCCACAAAGCUUGAGAGCAUCUUCGGAUGCAGAGGCGGCAGCCUUCGGUGGCGCGAUACCGCCAACGUUCUCAACUAUGACACGCAAAACGCGUGCUCCGUUGAAUGGAGUUUAUCAUG [C10G G92C], -3.61.
As for GGAUCUUCUCGAUCUUACAAAAAAGACAAAUCUGCCACAAAGCUUGAGAACAUCUUCGGAUGCAGAGGCGGCAGCCUUCGGUGGCGCGAUAGCGGCAACGUUCUCAACUAUGACACGGAAAACGCGUGCUCCGUUGAAUGGAGUUUAUCAUG [A16U G50A C95G C118G], the “polymerase ribozyme fitness (log ratio)” value is not above -4.2.
The same measure for GGAUCUUCUCGAUCUAACAAAAAAGACAAAUCUGCCAUCAAGCUUGAGAGCAUCUUCGGAGGCAGAGGCGGCAGCCUUCGGUGGCGCGAUAGCGCCAACGUUCUCAACUAUGACACGCAAAACCCGUGCUCCGUUGAAUGGAGUUUAUCAUG [C38U A39C U61G G124C]: -3.96; for GGAUCUUCUCGAUCUAACAAAAAAGACAAAUCUGCCACAAAGCUUGAGAGCAUCUUCGGAUGCAGAGGCGGCAGCCUUCGGUGGCGGGAUAGCGCCAACGUUCUCAACUAUGACAUGCAAAACGCGUGCUCCGUUGAAUGGAGUUUAUCAUG [C87G C116U]: -3.77; for GGAUCUUCUCGAUCUAACAAAAAAGACAAAUCUGCCACAAAGCUUGAGAGCAUCAUCGGAUGCAGAGGCGGCAGCCUUCGCUGGCGCGAUAGCGCCAACGUUCUCAACUAUGACACGGAAAACGCGUGCUCCGUUGAAUGAAGUUAAUCAUG [U55A G81C C118G G141A U146A]: -2.94.
To GGAUGUUCUCGAUCUAACAAAAAAGACAAAUCUGCCACAAUGCUUGAGAGCAUCUUCGCAUGCAGAGGCGGCAGCCUUCGGUGACGCGAUAGCGCCAACGUUCUCAACUAUGACACGCAAAACGCGUGCUCCGUUGAAUGGAGUUUAUCAUG [C5G A41U G59C G84A] belongs -2.99.
The same measure for GGAUCUUCUCGAUCUAACAAAAAAGACAAAUCUGCCUCAAAGCUUGAGAGCAUCUUCGGAAGCAGAGGCGGCAGCCUUCGGUGGCGCGCUAGCGCAACCGUUCACAACUAUGACACGCAAAACGCGUGCUCCGUUGAAUGGAGUUUAUCAUG [A37U U61A A89C C96A A98C U104A]: not above -4.2; for GGAUCUUGUCGAUCUAACAAAAAAGACAAAUCUGCCACAAAGCUUGAGAGCAUCUUCGGAUGCAGAGGCGGCAGCCUUCGGUGGCGCGAUAGUGCCAACGUUCUCAACUAUGACACGCAAAACGCGUGCUCCGUUGAAUGGAGUUUAUCAUG [C8G C93U]: -3.64; for GGAUCUAGUCGAUCUAACAAAAAAGACAAAUCUGCCACAAAGCUUGAGAGCAUCUUCGGAUGCAGAGGCGGCAGCCUUCGGUGGCGCGCUAGCGGCAACGUUCUCAACUAUGACACGCAAAACGCGUGCUCCGUUGAAUGGAGUUUAUCAUG [U7A C8G A89C C95G]: not above -4.2.
